Reference: paper PMC12041577 (Nature Communications, 2025)
Numbering of substitutions follows the chain as printed. Names may count otherwise.

Target: the molecule itself
Experiment: GraFix

B1: ad2-100K truncation mutant Δ693–805 with a C terminal 2 × Strep tag (domain or fragment, human adenovirus type 2 (ad2), UniProt P24932 1-692, looked up)
chain: MESVEKEDSLTAPFEFATTASTDAANAPTTFPVEAPPLEEEEVIIEQDPGFVSEDDEDRSVPTEDKKQDQDDAEANEEQVGRGDQRHGDYLDVGDDVLLKHLQRQCAIICDALQERSDVPLAIADVSLAYERHLFSPRVPPKRQENGTCEPNPRLNFYPVFAVPEVLATYHIFFQNCKIPLSCRANRSRADKQLALRQGAVIPDIASLDEVPKIFEGLGRDEKRAANALQQENSENESHCGVLVELEGDNARLAVLKRSIEVTHFAYPALNLPPKVMSTVMSELIVRRARPLERDANLQEQTEEGLPAVGDEQLARWLETREPADLEERRKLMMAAVLVTVELECMQRFFADPEMQRKLEETLHYTFRQGYVRQACKISNVELCNLVSYLGILHENRLGQNVLHSTLKGEARRDYVRDCVYLFLCYTWQTAMGVWQQCLEERNLKELQKLLKQNLKDLWTAFNERSVAAHLADIIFPERLLKTLQQGLPDFTSQSMLQNFRNFILERSGILPATCCALPSDFVPIKYRECPPPLWGHCYLLQLANYLAYHSDIMEDVSGDGLLECHCRCNLCTPHRSLVCNSQLLSESQIIGTFELQGPSPDEKSAAPGLKLTPGLWTSAYLRKFVPEDYHAHEIRFYEDQSRPPNAELTACVITQGHILGQLQAINKARQEFLLRKGRGVYLDPQSGEELN
binding result: binds

B2: ad2-100K fused with a C terminal 2 × Strep tag (natural protein, human adenovirus type 2 (ad2), UniProt P24932 1-805, looked up)
chain: MESVEKEDSLTAPFEFATTASTDAANAPTTFPVEAPPLEEEEVIIEQDPGFVSEDDEDRSVPTEDKKQDQDDAEANEEQVGRGDQRHGDYLDVGDDVLLKHLQRQCAIICDALQERSDVPLAIADVSLAYERHLFSPRVPPKRQENGTCEPNPRLNFYPVFAVPEVLATYHIFFQNCKIPLSCRANRSRADKQLALRQGAVIPDIASLDEVPKIFEGLGRDEKRAANALQQENSENESHCGVLVELEGDNARLAVLKRSIEVTHFAYPALNLPPKVMSTVMSELIVRRARPLERDANLQEQTEEGLPAVGDEQLARWLETREPADLEERRKLMMAAVLVTVELECMQRFFADPEMQRKLEETLHYTFRQGYVRQACKISNVELCNLVSYLGILHENRLGQNVLHSTLKGEARRDYVRDCVYLFLCYTWQTAMGVWQQCLEERNLKELQKLLKQNLKDLWTAFNERSVAAHLADIIFPERLLKTLQQGLPDFTSQSMLQNFRNFILERSGILPATCCALPSDFVPIKYRECPPPLWGHCYLLQLANYLAYHSDIMEDVSGDGLLECHCRCNLCTPHRSLVCNSQLLSESQIIGTFELQGPSPDEKSAAPGLKLTPGLWTSAYLRKFVPEDYHAHEIRFYEDQSRPPNAELTACVITQGHILGQLQAINKARQEFLLRKGRGVYLDPQSGEELNPIPPPPQPYQQPRALASQDGTQKEAAAAAAATHGRGGILGQSGRGGFGRGGGDDGRLGQPRRSFRGRRGVRRNTVTLGRIPLAGAPEIGNRSQHRYNLRSSGAAGTACSPTQP
modifications: intermolecular disulfide bonds C515-C516' and C516-C515' between the two protomers
stoichiometry N: 2

B3: ad2-100K mutant C515S-C516S-strepII (natural protein, human adenovirus type 2 (ad2), UniProt P24932 1-805, looked up)
chain: B2 chain with C515S, C516S
binding result: binds

B4: ad2-100K truncation mutant Δ680–805 with a C terminal 2 × Strep tag (domain or fragment, human adenovirus type 2 (ad2), UniProt P24932 1-679, looked up)
chain: MESVEKEDSLTAPFEFATTASTDAANAPTTFPVEAPPLEEEEVIIEQDPGFVSEDDEDRSVPTEDKKQDQDDAEANEEQVGRGDQRHGDYLDVGDDVLLKHLQRQCAIICDALQERSDVPLAIADVSLAYERHLFSPRVPPKRQENGTCEPNPRLNFYPVFAVPEVLATYHIFFQNCKIPLSCRANRSRADKQLALRQGAVIPDIASLDEVPKIFEGLGRDEKRAANALQQENSENESHCGVLVELEGDNARLAVLKRSIEVTHFAYPALNLPPKVMSTVMSELIVRRARPLERDANLQEQTEEGLPAVGDEQLARWLETREPADLEERRKLMMAAVLVTVELECMQRFFADPEMQRKLEETLHYTFRQGYVRQACKISNVELCNLVSYLGILHENRLGQNVLHSTLKGEARRDYVRDCVYLFLCYTWQTAMGVWQQCLEERNLKELQKLLKQNLKDLWTAFNERSVAAHLADIIFPERLLKTLQQGLPDFTSQSMLQNFRNFILERSGILPATCCALPSDFVPIKYRECPPPLWGHCYLLQLANYLAYHSDIMEDVSGDGLLECHCRCNLCTPHRSLVCNSQLLSESQIIGTFELQGPSPDEKSAAPGLKLTPGLWTSAYLRKFVPEDYHAHEIRFYEDQSRPPNAELTACVITQGHILGQLQAINKARQEFLLRKGR
binding result: binds
